Laboratory results taken from PMC4932527.

Biological target: human LEPTIN receptor expressed in 293FT cells (human) (UniProt P48357)
Sequence of UniProt P48357 (P48357 22-1165): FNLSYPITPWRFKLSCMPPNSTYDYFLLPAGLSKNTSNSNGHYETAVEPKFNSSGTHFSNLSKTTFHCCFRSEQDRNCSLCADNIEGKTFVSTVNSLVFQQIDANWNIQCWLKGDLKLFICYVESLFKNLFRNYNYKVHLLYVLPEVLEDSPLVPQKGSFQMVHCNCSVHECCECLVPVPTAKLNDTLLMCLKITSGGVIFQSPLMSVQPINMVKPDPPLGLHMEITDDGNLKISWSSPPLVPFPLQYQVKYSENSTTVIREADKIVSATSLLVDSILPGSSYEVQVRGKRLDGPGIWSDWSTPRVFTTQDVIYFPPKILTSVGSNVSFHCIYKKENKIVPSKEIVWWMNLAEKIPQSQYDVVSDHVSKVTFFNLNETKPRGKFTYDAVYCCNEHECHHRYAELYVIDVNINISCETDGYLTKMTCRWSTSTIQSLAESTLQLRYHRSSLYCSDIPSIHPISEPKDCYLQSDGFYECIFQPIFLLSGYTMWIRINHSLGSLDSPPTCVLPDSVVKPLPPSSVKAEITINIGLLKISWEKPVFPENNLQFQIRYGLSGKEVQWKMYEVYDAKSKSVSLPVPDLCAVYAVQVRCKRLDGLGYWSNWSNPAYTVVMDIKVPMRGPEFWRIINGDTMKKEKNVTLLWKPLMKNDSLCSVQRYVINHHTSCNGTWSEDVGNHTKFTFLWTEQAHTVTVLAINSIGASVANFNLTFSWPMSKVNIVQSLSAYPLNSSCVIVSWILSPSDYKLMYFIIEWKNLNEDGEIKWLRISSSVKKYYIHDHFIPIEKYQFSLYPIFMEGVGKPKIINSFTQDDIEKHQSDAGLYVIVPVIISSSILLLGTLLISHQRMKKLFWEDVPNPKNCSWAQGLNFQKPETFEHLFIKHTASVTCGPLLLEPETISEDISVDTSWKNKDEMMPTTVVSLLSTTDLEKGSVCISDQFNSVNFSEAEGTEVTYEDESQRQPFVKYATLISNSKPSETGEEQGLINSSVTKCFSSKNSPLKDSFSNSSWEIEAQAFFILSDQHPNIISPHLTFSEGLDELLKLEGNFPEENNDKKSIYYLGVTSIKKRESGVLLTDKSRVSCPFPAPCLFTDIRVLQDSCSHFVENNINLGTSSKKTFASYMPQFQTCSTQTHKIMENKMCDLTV

STAT3 luciferase reporter (pGL6-Stat3, normalised to renilla) in 293FT cells transfected with LEPR, treated with different concentrations of recombinant LEP; EC50 of activation: 3e-09 M
Substance: recombinant rat LEPTIN, wild type (from UniProt P50596 22-167) (ligand)
